Assays:
[1] = biological target: T1, human carcinoembryonic antigen (human, UniProt P06731 35-685, 125I label (125I-CEA, the tracer in the radioimmunoassay)); assay: solid phase radioimmunoassay: culture supernatant, 125I-CEA, Sepharose-bound goat anti-human IgG
T1 construct: Used as a 125I-labelled tracer; also called CEA
T1 sequence (looked up): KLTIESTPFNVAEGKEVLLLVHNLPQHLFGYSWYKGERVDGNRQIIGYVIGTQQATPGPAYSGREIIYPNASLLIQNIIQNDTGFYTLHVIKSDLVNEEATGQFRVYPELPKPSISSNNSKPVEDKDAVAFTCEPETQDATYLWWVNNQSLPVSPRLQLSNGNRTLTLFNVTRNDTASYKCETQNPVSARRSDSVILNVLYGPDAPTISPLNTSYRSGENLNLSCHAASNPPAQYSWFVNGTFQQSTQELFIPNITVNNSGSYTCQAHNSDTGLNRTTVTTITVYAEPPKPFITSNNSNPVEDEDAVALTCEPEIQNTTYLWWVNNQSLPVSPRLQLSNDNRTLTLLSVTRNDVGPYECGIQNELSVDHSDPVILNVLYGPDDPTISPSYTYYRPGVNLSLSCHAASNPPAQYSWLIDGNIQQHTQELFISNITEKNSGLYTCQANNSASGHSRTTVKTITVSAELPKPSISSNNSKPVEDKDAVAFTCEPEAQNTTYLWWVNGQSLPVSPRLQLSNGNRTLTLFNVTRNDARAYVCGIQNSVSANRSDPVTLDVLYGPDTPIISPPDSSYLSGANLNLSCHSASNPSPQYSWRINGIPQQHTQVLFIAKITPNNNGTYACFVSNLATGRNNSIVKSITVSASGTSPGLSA

[2] = biological target: T1, human carcinoembryonic antigen; assay: affinity comparison by radioimmunoassay and Scatchard analysis; Ka not given

Binder | binding result [1] | binding result [2]
chimeric antibody XCEM 449 (antibody, V domains shown, the one-letter code is converted from the printed three-letter code; also called CEM-chimeric antibody; chimeric CEM antibody) VH: DVQLVESGGGLVQPGGSRKLSCAASGFTFSNFGMHWIRQAPEKGLEWVAYISGGSSTIYYADTVKGRFTISRDNPRNTLFLQMTSLRSEDTAMFYCARDYYANNYWYFDVWGAGTTVTVSS VL: DIVMTQSQKFMSTSVGDRVSITCKASQNVRTAVAWYQQKPGQSPKALIYLASNRYTGVPDRFTGSGSGTDFTLTITNVQSEDLADYFCLQHWNYPLTFGAGTKLELKR | binds | –
murine monoclonal antibody of hybridoma CEM 231.6.7 (antibody, V domains shown, also called murine antibody counterparts; ATCC HB9620) VH: DVQLVESGGGLVQPGGSRKLSCAASGFTFSNFGMHWIRQAPEKGLEWVAYISGGSSTIYYADTVKGRFTISRDNPRNTLFLQMTSLRSEDTAMFYCARDYYANNYWYFDVWGAGTTVTVSS VL: DIVMTQSQKFMSTSVGDRVSITCKASQNVRTAVAWYQQKPGQSPKALIYLASNRYTGVPDRFTGSGSGTDFTLTITNVQSEDLADYFCLQHWNYPLTFGAGTKLELKR | – | binds

From patent EP0332424A2 (dated 1991)
